This test addresses T1, 15N-labelled recombinant EGFR287-302 peptide with methionine mutated to leucine (human, also: 15N-labelled, oxidized).
T1 construct: cleaved from an SH2 fusion with CNBr; also called 15N-labelled peptide
T1 peptide: CGADSYELEEDGVRKC
As to the kind of experiment: NMR, 15N HSQC.

Where no end group is shown, it is not given here.

B1: Fab fragment of mAb806 (Fab, V domains shown)
VH: DVQLQESGPSLVKPSQSLSLTCTVTGYSITSDFAWNWIRQFPGNKLEWMGYISYSGNTRYNPSLKSRISITRDTSKNQFFLQLNSVTIEDTATYYCVTAGRGFPYWGQGTLVTVSA
VL: DILMTQSPSSMSVSLGDTVSITCHSSQDINSNIGWLQQRPGKSFKGLIYHGTNLDDEVPSRFSGSGSGADYSLTISSLESEDFADYYCVQYAQFPWTFGGGTKLEIKR
notes: papain Fab of the intact mAb; also called Fab806
For the molecule B1, the binding result is listed as “binds”.
